Test results published in the supplement of paper PMC9876800.

Test system: peptide library, one residue held at a place counted from the S/T acceptor
Assay: relative phosphorylation of the sub-library (ratio to the mean residue at this position); higher = residue favoured
In short: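 Each biotinylated degenerate peptide sub-library fixed one residue at one position around a central Ser/Thr and was incubated with a purified recombinant kinase, a human or orthologue construct, in 384-well plates. The 90 min reactions, under kinase-specific conditions, contained 50 μM peptide and 50 μM ATP spiked with γ-32P-ATP. Phosphorylation was read by phosphorimaging spots on streptavidin membranes and quantifying them by densitometry. Relative sub-library phosphorylation expresses each value as a ratio to the mean residue at that position.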

Sequence of AURKC, construct: Full length, human (Q9UQB9 whole entry, looked up): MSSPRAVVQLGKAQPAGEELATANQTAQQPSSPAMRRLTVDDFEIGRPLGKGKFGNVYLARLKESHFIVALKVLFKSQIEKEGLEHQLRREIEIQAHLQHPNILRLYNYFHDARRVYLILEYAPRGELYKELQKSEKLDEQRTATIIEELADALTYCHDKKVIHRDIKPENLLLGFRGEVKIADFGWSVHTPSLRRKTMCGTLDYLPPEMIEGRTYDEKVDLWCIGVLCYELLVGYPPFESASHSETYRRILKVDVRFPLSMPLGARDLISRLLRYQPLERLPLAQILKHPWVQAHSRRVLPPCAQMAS
Sequence of TSSK6, construct: Full length, human (Q9BXA6 whole entry, looked up): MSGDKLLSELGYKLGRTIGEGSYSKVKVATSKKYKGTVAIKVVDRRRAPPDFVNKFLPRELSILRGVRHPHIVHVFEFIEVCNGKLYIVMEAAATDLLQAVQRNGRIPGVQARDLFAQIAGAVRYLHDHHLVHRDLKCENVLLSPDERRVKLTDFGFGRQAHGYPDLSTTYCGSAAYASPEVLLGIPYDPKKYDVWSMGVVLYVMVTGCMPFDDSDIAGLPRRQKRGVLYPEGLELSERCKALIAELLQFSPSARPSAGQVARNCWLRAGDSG
Sequence of HASPIN, construct: aa452-798, human (Q8TF76 452-798, looked up): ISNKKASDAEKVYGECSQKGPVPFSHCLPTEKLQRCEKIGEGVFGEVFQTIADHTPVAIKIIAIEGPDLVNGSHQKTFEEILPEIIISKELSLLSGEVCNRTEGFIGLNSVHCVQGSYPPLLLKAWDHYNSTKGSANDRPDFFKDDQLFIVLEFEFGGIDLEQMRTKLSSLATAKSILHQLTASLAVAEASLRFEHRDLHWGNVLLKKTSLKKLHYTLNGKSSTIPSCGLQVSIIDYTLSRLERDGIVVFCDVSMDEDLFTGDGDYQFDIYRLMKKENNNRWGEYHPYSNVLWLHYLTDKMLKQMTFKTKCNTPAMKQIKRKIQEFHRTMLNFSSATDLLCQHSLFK
Sequence of MAP3K14, construct: aa327-673, human (Q99558 327-673, looked up): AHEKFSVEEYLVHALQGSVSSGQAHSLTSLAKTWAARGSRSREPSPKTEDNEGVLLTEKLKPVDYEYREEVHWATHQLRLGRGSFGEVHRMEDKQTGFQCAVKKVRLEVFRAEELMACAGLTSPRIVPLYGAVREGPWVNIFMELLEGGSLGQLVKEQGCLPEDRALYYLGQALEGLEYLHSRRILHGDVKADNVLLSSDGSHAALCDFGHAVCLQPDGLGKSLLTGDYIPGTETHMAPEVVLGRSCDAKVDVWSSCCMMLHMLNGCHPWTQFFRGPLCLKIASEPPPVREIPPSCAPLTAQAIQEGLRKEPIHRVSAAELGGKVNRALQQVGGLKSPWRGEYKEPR

HASPIN, construct: aa452-798, human (from UniProt Q8TF76)
relative phosphorylation
Details	at +1	at +2	at +3	at +4	at -1	at -2	at -3	at -4	at -5
A fixed	0.379	1.04	0.824	0.822	0.515	2.18	0.883	0.899	0.836
D fixed	0.166	0.469	0.344	0.766	0.155	0.679	0.544	0.634	0.517
E fixed	0.161	0.359	0.28	0.404	0.158	0.483	0.577	0.767	0.526
F fixed	0.587	0.877	0.984	0.829	0.354	0.76	0.749	0.936	0.812
G fixed	0.467	0.751	1.02	1.03	0.615	1.17	1.1	0.985	0.887
H fixed	0.682	1.36	1.09	1.14	0.606	0.783	1.11	0.964	1.01
I fixed	0.779	0.69	0.652	0.819	0.286	0.734	0.693	0.844	2.68
K fixed	5.48	1.95	1.81	2.09	1.5	1.39	1.92	1.39	1.23
L fixed	0.621	0.783	0.797	0.749	0.294	0.464	0.694	1.54	0.645
M fixed	0.766	1.56	0.782	1.01	0.42	0.47	0.644	0.933	0.777
N fixed	0.295	0.762	0.801	0.86	0.427	0.737	0.941	0.738	0.763
P fixed	0.807	0.559	0.714	0.801	0.493	1.83	1.12	0.987	1.32
Q fixed	0.469	1.19	0.819	1	0.591	0.672	0.834	0.974	0.722
R fixed	2.67	1.78	3.05	1.65	9.3	1.83	2.79	1.57	1.33
V fixed	0.622	0.657	0.731	0.714	0.285	1.27	0.768	0.951	0.982
W fixed	0.51	1.25	1.09	1.33	0.313	0.749	0.82	0.918	0.922
Y fixed	1.54	0.971	1.21	0.979	0.683	0.809	0.807	0.969	1.05
pThr fixed	0.315	0.44	0.466	0.648	0.379	1.23	1.14	0.928	0.991
pTyr fixed	0.322	0.359	0.492	0.589	0.582	0.966	1.09	0.743	1.01

AURKC, construct: Full length, human (from UniProt Q9UQB9)
relative phosphorylation
Details	at +1	at +2	at +3	at +4	at -1	at -2	at -3	at -4	at -5
A fixed	1.01	1.38	1.08	0.973	0.816	0.333	0.832	1.25	1.46
D fixed	0.814	0.611	0.589	0.957	0.459	0.179	0.421	0.58	0.651
E fixed	0.755	0.417	0.466	0.681	0.394	0.167	0.36	0.562	0.554
F fixed	1.06	0.746	0.893	0.763	0.505	0.206	0.451	0.634	0.678
G fixed	1.37	2.03	1.6	1.25	0.672	0.399	1.06	1.33	1.63
H fixed	1.06	1.66	1.43	1.1	0.974	0.399	1.1	0.955	1.06
I fixed	0.852	0.592	0.605	0.684	0.406	0.25	0.402	0.623	0.63
K fixed	0.89	0.853	1.13	1.23	2.57	2.63	2.51	2.06	2.15
L fixed	1.15	0.694	0.863	0.792	0.811	0.251	0.392	0.601	0.632
M fixed	1.57	0.705	0.719	0.803	0.727	0.248	0.52	0.741	0.664
N fixed	1.29	1.23	1.25	1.2	0.73	0.304	0.919	0.856	1.05
P fixed	0.329	1.5	1.78	1.68	1.09	0.372	1.23	1.72	1.25
Q fixed	1.16	0.975	1.03	1.35	1.09	0.529	0.803	0.96	0.767
R fixed	1	0.962	1.08	1.13	3.72	10	4.34	2.18	1.47
V fixed	0.669	0.686	0.625	0.901	0.495	0.213	0.432	0.59	0.804
W fixed	1.08	1.03	0.961	0.859	0.526	0.233	0.674	0.69	0.852
Y fixed	0.931	0.928	0.906	0.647	1.01	0.25	0.55	0.673	0.719
pThr fixed	1.1	0.657	0.676	1.06	0.334	0.342	0.612	0.86	0.713
pTyr fixed	0.648	0.502	0.631	0.801	0.398	0.209	0.52	0.629	0.535

MAP3K14, construct: aa327-673, human (from UniProt Q99558)
relative phosphorylation
Details	at +1	at +2	at +3	at +4	at -1	at -2	at -3	at -4	at -5
A fixed	0.858	0.835	0.87	0.88	0.975	1.06	0.893	1	0.972
D fixed	0.726	0.707	0.858	0.865	0.8	0.709	0.687	0.783	0.764
E fixed	0.775	0.682	0.769	0.786	0.755	0.73	0.705	0.877	0.735
F fixed	1.21	0.85	0.978	0.96	0.787	0.923	0.751	0.89	1.04
G fixed	0.867	0.83	0.956	1.04	1.09	1.01	0.925	1.02	0.917
H fixed	0.973	1.15	1.11	1.04	1.16	1.08	1.08	1.06	1.05
I fixed	1	0.886	0.795	0.924	0.66	0.713	0.64	0.804	0.879
K fixed	1.08	1.68	1.36	1.36	1.49	1.19	1.92	1.53	1.38
L fixed	1.09	0.908	0.971	1.02	0.874	0.78	0.731	0.896	1.23
M fixed	1.26	0.844	0.875	0.962	0.966	1.02	0.753	0.977	1.04
N fixed	0.909	0.978	1.18	1.09	1.19	0.954	0.904	1.02	0.911
P fixed	0.69	0.817	0.935	1.25	1.02	0.763	0.843	0.924	1.05
Q fixed	1.09	0.918	0.979	1.06	1.04	1.18	0.97	1.03	0.921
R fixed	1.2	2.11	1.49	1.23	1.63	1.94	2.81	1.49	1.43
V fixed	0.988	0.892	0.81	0.866	0.687	0.76	0.652	0.843	0.808
W fixed	1.21	0.909	1.09	0.827	0.814	1.12	0.939	0.938	0.945
Y fixed	1.06	0.998	0.983	0.841	1.07	1.07	0.793	0.931	0.921
pThr fixed	0.918	0.837	0.843	0.923	0.678	0.769	0.827	0.899	0.877
pTyr fixed	0.869	0.849	0.889	0.774	0.829	0.824	1.01	0.941	0.985

TSSK6, construct: Full length, human (from UniProt Q9BXA6)
relative phosphorylation
Details	at +1	at +2	at +3	at +4	at -1	at -2	at -3	at -4	at -5
A fixed	0.866	0.53	0.939	0.483	1.08	1.85	1.52	1.26	2.13
D fixed	0.814	0.32	1.61	0.385	0.442	0.203	0.21	0.354	0.243
E fixed	0.876	0.568	0.702	0.265	0.603	0.328	0.335	0.562	0.234
F fixed	0.806	1.16	1.03	1.5	0.537	0.586	0.45	0.532	0.466
G fixed	0.426	0.258	0.513	0.584	0.604	0.649	0.965	1.22	0.542
H fixed	1.23	3.4	1.89	0.696	0.82	0.868	0.848	1.32	0.607
I fixed	0.765	1.51	0.506	2.46	0.579	0.891	0.724	0.673	1.45
K fixed	1.45	0.403	1.09	0.543	2.1	3.12	2.57	2.67	0.911
L fixed	0.925	1.38	0.645	3.38	0.657	0.416	0.61	0.721	1.71
M fixed	1.16	1.69	0.825	1.68	0.874	0.629	0.779	0.968	0.703
N fixed	1.38	0.574	1.94	0.653	0.876	0.87	0.72	0.758	0.508
P fixed	0.155	0.299	0.204	0.591	1.83	0.446	1.35	0.544	1.46
Q fixed	1.56	0.847	1.02	0.605	1.35	1.23	0.962	0.943	0.999
R fixed	1.83	0.499	1.25	0.506	2.4	2.11	3.07	2.22	1.93
V fixed	0.932	0.96	0.59	1.42	0.804	1.55	0.773	0.938	1.73
W fixed	0.85	1.08	1.27	0.677	0.662	0.518	0.571	0.641	0.469
Y fixed	0.97	1.52	0.981	0.582	0.778	0.747	0.555	0.685	0.902
pThr fixed	0.547	0.29	0.216	0.269	0.566	0.279	0.724	0.748	0.793
pTyr fixed	0.534	0.459	0.32	0.268	0.417	0.427	0.519	0.447	0.752
